In the supplement of paper PMC10065799, “High-throughput profiling of sequence recognition by tyrosine kinases and SH2 domains using bacterial peptide display” (eLife, 2023):

What was measured:
[1] = target: MERTK (UniProt Q12866); assay: phosphorylation enrichment, bacterial display (enrichment ratio); higher = better substrate or ligand; peptides without Tyr show the background
[2] = target: Jak2 (UniProt O60674); assay: as above
[3] = target: EPHB1 (UniProt P54762); assay: as above
[4] = test system: AncSZ; assay: as above
[5] = test system: Fer (mouse); assay: as above
[6] = target: EPHB2 (UniProt P29323); assay: as above
[7] = target: Hck (UniProt P08631); assay: as above
[8] = test system: c-Abl (mouse); assay: as above
[9] = target: FGFR1 (UniProt P11362); assay: as above
[10] = test system: c-Src; assay: as above
[11] = target: FGFR3 (UniProt P22607); assay: as above
[12] = target: Fyn (UniProt P06241); assay: as above
[13] = target: Fes (UniProt P07332); assay: as above
[14] = target: c-Src SH2; assay: SH2 binding enrichment of the phosphorylated peptide, bacterial display (enrichment ratio); higher = better substrate or ligand; peptides without Tyr show the background
[15] = target: Grb2 SH2 (UniProt P62993); assay: as above
[16] = target: SHP2-C SH2; assay: as above
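Throughout, for SH2 binding enrichment of the phosphorylated peptide, bacterial display: peptide library displayed on the E. coli surface as eCPX fusions, selected cells deep-sequenced, score is each peptide's frequency after selection divided by its frequency in the input.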
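Throughout, for phosphorylation enrichment, bacterial display: 11-residue human phosphosite peptides and single-mutation variants displayed on the E. coli surface, counted by deep sequencing, each peptide's frequency after selection divided by its frequency in the unselected input library; frequency after pTyr selection over input frequency; kinase dosed for 20-30% of maximal phosphorylation in three min.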

Chain of FGFR3 (P22607 whole entry, looked up): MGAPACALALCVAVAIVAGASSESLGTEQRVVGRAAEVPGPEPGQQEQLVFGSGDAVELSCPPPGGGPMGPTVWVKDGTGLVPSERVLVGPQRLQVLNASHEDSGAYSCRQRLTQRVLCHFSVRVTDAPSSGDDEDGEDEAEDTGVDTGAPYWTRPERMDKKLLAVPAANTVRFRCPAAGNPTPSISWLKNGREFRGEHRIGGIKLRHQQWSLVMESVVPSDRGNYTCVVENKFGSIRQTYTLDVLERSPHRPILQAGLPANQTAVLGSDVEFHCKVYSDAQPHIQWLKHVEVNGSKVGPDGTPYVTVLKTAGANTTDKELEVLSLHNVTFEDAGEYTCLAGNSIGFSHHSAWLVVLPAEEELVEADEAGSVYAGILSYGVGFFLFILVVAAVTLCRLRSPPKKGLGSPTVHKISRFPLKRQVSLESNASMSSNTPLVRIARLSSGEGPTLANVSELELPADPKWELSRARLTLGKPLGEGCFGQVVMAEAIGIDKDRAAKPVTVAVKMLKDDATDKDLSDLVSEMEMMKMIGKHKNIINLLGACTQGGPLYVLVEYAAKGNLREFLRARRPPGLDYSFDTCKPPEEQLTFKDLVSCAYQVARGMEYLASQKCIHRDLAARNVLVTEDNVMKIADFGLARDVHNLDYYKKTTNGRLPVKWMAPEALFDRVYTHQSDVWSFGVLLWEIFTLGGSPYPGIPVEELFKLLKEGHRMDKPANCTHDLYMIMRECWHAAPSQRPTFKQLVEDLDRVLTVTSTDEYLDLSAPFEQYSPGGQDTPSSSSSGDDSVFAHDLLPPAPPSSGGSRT
Chain of EPHB1 (P54762 whole entry, looked up): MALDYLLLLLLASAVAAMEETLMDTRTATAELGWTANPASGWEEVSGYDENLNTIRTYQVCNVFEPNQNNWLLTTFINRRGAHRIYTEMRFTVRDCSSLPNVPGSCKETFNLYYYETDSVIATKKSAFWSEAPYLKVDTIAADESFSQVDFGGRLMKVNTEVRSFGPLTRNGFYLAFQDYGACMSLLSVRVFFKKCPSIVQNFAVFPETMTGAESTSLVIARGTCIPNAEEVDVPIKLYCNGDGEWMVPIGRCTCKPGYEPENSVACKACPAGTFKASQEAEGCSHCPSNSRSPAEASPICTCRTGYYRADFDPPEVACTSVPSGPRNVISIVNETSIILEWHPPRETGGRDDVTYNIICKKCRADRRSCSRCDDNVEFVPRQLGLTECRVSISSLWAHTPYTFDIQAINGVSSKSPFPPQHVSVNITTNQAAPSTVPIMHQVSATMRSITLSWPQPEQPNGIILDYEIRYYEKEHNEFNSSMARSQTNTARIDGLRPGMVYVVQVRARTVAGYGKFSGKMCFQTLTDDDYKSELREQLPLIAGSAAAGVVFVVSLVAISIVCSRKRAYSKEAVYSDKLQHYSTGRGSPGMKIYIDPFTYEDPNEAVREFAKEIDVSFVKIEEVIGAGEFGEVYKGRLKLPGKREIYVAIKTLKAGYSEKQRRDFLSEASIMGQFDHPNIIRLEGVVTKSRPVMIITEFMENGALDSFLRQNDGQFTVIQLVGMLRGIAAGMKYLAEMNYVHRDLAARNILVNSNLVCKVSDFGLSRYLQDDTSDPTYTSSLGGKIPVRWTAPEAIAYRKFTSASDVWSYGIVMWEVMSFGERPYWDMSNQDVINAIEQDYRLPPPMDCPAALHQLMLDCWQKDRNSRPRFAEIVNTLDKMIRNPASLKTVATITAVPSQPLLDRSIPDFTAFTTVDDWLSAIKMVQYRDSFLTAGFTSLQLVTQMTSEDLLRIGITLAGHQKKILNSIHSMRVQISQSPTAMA
Chain of Fyn (P06241 whole entry, looked up): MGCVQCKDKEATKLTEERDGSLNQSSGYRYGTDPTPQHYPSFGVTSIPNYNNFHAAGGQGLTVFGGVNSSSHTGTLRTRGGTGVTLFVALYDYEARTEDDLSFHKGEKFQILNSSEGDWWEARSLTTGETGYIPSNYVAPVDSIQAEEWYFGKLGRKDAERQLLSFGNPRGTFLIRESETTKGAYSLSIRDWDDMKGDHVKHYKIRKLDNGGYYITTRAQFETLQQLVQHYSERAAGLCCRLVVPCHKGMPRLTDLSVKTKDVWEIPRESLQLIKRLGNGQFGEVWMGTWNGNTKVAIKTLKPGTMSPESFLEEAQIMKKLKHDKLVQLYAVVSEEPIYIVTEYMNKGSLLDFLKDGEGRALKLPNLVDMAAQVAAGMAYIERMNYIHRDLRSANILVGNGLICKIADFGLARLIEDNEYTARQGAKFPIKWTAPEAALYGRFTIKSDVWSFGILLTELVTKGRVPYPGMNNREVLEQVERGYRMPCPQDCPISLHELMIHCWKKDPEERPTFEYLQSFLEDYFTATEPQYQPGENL
Chain of Hck (P08631 whole entry, looked up): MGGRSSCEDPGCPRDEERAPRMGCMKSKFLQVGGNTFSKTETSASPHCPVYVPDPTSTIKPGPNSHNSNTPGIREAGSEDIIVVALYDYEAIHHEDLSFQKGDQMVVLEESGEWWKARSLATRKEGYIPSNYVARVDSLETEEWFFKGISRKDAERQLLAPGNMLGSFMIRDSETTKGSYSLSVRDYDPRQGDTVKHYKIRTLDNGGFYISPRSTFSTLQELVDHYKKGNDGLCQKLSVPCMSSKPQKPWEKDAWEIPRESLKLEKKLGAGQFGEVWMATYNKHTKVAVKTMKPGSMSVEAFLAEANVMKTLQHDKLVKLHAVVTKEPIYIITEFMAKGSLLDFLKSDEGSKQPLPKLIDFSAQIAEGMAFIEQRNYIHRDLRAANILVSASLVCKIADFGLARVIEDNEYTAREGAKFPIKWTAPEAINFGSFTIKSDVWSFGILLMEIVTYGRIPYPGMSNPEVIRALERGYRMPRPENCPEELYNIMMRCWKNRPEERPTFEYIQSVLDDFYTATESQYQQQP
Chain of MERTK (Q12866 whole entry, looked up): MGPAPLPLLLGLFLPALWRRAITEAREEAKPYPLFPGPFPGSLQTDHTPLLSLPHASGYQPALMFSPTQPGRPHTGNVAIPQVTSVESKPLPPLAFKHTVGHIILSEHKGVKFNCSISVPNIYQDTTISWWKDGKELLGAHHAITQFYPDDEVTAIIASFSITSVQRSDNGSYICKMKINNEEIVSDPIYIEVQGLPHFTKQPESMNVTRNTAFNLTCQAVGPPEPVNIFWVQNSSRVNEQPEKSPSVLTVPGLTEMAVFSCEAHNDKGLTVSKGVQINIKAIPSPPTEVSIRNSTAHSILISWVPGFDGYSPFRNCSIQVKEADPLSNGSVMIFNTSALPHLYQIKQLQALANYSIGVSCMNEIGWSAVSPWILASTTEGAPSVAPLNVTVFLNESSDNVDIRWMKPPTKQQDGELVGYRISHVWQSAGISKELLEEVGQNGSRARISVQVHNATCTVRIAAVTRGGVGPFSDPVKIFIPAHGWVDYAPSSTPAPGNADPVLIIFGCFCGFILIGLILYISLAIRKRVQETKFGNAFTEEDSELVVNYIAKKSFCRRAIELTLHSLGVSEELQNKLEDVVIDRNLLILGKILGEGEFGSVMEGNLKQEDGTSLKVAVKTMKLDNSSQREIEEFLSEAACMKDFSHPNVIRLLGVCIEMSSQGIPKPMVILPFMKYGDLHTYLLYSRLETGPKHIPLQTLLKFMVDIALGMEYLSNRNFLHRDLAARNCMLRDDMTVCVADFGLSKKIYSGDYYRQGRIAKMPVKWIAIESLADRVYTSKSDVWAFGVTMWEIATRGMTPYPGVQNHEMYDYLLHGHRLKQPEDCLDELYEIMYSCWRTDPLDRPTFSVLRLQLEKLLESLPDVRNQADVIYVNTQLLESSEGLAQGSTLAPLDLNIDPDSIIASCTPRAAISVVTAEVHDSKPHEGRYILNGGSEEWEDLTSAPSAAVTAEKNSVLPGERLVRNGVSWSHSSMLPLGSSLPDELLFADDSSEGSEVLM
Chain of EPHB2 (P29323 whole entry, looked up): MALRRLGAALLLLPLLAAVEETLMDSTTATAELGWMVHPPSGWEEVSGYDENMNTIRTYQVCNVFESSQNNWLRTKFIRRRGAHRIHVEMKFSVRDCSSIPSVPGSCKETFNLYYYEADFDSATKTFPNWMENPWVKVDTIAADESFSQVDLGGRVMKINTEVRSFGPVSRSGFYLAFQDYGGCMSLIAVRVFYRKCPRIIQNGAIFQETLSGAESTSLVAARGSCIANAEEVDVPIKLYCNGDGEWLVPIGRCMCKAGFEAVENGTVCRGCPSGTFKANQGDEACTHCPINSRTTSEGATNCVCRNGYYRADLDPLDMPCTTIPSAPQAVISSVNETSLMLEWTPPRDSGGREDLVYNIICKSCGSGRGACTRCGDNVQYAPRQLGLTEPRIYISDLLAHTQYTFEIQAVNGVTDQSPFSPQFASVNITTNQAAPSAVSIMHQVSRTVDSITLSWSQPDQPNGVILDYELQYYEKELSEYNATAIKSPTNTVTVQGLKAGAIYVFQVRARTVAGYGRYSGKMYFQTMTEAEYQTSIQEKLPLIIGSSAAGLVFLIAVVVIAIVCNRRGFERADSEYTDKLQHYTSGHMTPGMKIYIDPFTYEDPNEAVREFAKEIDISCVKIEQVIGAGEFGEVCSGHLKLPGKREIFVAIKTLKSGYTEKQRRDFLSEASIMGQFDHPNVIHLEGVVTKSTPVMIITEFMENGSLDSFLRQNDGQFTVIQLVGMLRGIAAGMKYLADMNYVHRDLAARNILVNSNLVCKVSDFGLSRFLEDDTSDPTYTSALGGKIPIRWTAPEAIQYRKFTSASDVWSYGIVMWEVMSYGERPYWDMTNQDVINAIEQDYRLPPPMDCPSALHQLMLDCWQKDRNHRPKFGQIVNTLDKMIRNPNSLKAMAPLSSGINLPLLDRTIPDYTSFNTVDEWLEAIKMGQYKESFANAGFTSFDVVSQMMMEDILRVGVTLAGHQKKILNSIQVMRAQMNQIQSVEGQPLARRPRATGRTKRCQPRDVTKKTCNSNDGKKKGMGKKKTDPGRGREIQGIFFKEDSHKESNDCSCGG

Row | Sequence | SH2 binding enrichment [14] | SH2 binding enrichment [15] | SH2 binding enrichment [16] | phosphorylation enrichment [1] | phosphorylation enrichment [2] | phosphorylation enrichment [3] | phosphorylation enrichment [4] | phosphorylation enrichment [5] | phosphorylation enrichment [6] | phosphorylation enrichment [7] | phosphorylation enrichment [8] | phosphorylation enrichment [9] | phosphorylation enrichment [10] | phosphorylation enrichment [11] | phosphorylation enrichment [12] | phosphorylation enrichment [13]
1 | RELGEYALAEY [ALDH1A3_Y492] | 1.18 | 0.707 | 0.691 | 0.55 | 1.81 | 0.858 | 1.44 | 0.74 | 0.785 | 0.765 | 1.67 | 0.694 | 1.14 | 0.714 | 0.614 | 2.76
2 | RELGEYGLQAY [ALDH2_Y497] | 0.451 | 0.745 | 0.749 | 0.562 | 1.32 | 0.699 | 1.55 | 0.949 | 0.754 | 0.824 | 0.962 | 0.676 | 0.696 | 0.977 | 0.822 | 1.61
3 | RENGPYYASYP [GDAP2_Y487_T489A] | 0.705 | 0.822 | 1.13 | 7.74 | 0.661 | 1.58 | 1.04 | 0.691 | 5.74 | 5.46 | 1.94 | 2.29 | 7.26 | 1.92 | 8.25 | 0.869
4 | RFLRGYRQYAY [HLA-A_Y137_D140Y] | 0.322 | 0.92 | 0.602 | 0.846 | 4.7 | 1.33 | 1.61 | 0.577 | 0.752 | 0.634 | 1.56 | 0.77 | 1.56 | 0.669 | 1.29 | 1.19
5 | RGFDTYFGFLL [ARSB_Y165_YF] | 0.578 | 0.899 | 0.828 | 5.24 | 4.64 | 4.25 | 1.68 | 4.06 | 4.31 | 6.53 | 1.14 | 3.4 | 6.93 | 3.25 | 8.78 | 1.53
6 | RHRSGYVLIAM [EFR3A_Y73] | 1.73 | 2.09 | 2.72 | 0.475 | 0.79 | 0.307 | 1.31 | 1.1 | 0.708 | 0.638 | 0.528 | 0.737 | 0.284 | 0.773 | 0.605 | 1.37
7 | RLLRGYDQSAY [HLA-C_Y137] | 0.645 | 0.858 | 0.83 | 0.36 | 0.576 | 0.569 | 0.57 | 0.52 | 0.465 | 0.527 | 0.468 | 0.394 | 0.416 | 0.593 | 0.465 | 0.826
8 | RLLRGYDQYAY [HLA-B_Y137_H137Y] | 2.15 | 1.26 | 0.954 | 0.596 | 0.844 | 0.636 | 0.865 | 0.476 | 0.821 | 0.575 | 0.659 | 0.548 | 0.738 | 0.508 | 0.518 | 0.924
9 | RLLVLYPWTQR [HBB_Y36_V35L] | 1.52 | 1.77 | 1.75 | 0.541 | 0.702 | 0.681 | 1.42 | 0.594 | 0.98 | 0.782 | 0.558 | 0.886 | 0.366 | 0.987 | 0.791 | 1.26
10 | RLLVVYPWTER [HBB_Y36_Q40E] | 1.55 | 2.1 | 2.29 | 0.324 | 1.03 | 0.345 | 1.16 | 0.37 | 0.572 | 0.618 | 0.612 | 0.513 | 0.52 | 0.58 | 0.472 | 1.21
11 | RQQQDYWLKDV [ANPEP_Y600_I603K] | 0.675 | 1.01 | 0.635 | 0.52 | 1.25 | 0.484 | 1.07 | 0.495 | 0.556 | 0.322 | 0.662 | 0.71 | 0.564 | 0.741 | 0.305 | 0.911
12 | RRERDYTNLPS [CSF1R_Y923] | 0.486 | 0.519 | 0.485 | 0.558 | 0.628 | 0.447 | 2.88 | 0.474 | 0.548 | 0.62 | 0.692 | 0.493 | 0.668 | 0.541 | 0.651 | 0.561
13 | RRNTYYASIAK [ACADM_Y353] | 0.953 | 0.889 | 1.66 | 1.13 | 1.12 | 0.702 | 0.902 | 0.611 | 0.541 | 0.853 | 0.939 | 0.536 | 0.81 | 0.76 | 0.762 | 0.889
14 | RTLIRYAKLGN [BEST1_Y131_N133K] | 0.765 | 1.14 | 1.11 | 1.02 | 1.23 | 0.854 | 1.4 | 0.561 | 0.775 | 0.849 | 1.07 | 0.632 | 1.02 | 0.612 | 0.848 | 1.27
15 | SDVSSYLEGQA [GCG_Y110] | 0.41 | 0.727 | 0.738 | 0.432 | 0.769 | 0.469 | 0.867 | 0.775 | 0.76 | 0.488 | 0.678 | 0.456 | 0.474 | 0.657 | 0.447 | 0.938

Further lines, with some results ahead:

Row | SH2 binding enrichment [14] | SH2 binding enrichment [15] | SH2 binding enrichment [16] | Sequence | phosphorylation enrichment [1] | phosphorylation enrichment [2] | phosphorylation enrichment [3] | phosphorylation enrichment [4] | phosphorylation enrichment [5] | phosphorylation enrichment [6] | phosphorylation enrichment [7] | phosphorylation enrichment [8] | phosphorylation enrichment [9] | phosphorylation enrichment [10] | phosphorylation enrichment [11] | phosphorylation enrichment [12] | phosphorylation enrichment [13]
16 | 0.551 | 1.07 | 0.632 | REVPVYISEDS [SYNM_Y460_G462S] | 1.53 | 3.51 | 1.3 | 2.34 | 1.2 | 1.07 | 1.09 | 2.66 | 1.16 | 1.56 | 1.57 | 0.89 | 2.71
17 | 0.646 | 0.944 | 1.49 | RGSQQYRALPV [TUBB8_Y281_T285P] | 0.525 | 0.789 | 0.533 | 0.618 | 0.434 | 0.563 | 0.388 | 0.694 | 0.803 | 0.588 | 0.546 | 0.655 | 0.686
18 | 0.41 | 0.534 | 0.687 | RGYRVCYTPDS [PTPRF_Y450_Y450C] | 0.634 | 1.86 | 0.892 | 1.32 | 0.71 | 0.909 | 0.618 | 1.16 | 0.784 | 0.985 | 1.36 | 0.602 | 1.61
19 | 0.654 | 0.944 | 0.718 | RKIMGYSIRTI [IDS_Y490_I485R] | 0.535 | 0.62 | 0.676 | 0.699 | 0.619 | 0.556 | 0.624 | 0.759 | 0.664 | 0.666 | 0.524 | 0.591 | 0.796
20 | 0.5 | 0.851 | 0.728 | RLVTRYIFNRE [HLA-DQB1_Y62_Y58L_YF] | 0.652 | 0.556 | 0.477 | 0.639 | 0.54 | 0.415 | 0.445 | 0.51 | 0.579 | 0.462 | 0.695 | 0.553 | 0.815
21 | 0.557 | 1.04 | 0.919 | RPSELYFSKIG [SMG1_Y2253_YF] | 0.791 | 0.51 | 0.49 | 0.605 | 0.421 | 0.457 | 1.74 | 0.687 | 0.641 | 0.623 | 0.654 | 0.546 | 0.671
22 | 5.74 | 1.06 | 2.51 | RPSELYYSKIS [SMG1_Y2253_G2258S] | 14.6 | 1.05 | 2.17 | 1.79 | 2.25 | 1.31 | 11.1 | 0.926 | 5.05 | 2.96 | 3.5 | 1.4 | 1.02
23 | 0.539 | 0.841 | 1.12 | RPYVYYYSYLL [PTEN_Y177_R173P] | 5.81 | 2.84 | 2.64 | 1.51 | 0.931 | 1.39 | 2.09 | 1.4 | 7.24 | 2.3 | 4.57 | 1.42 | 1.6
24 | 0.402 | 1.14 | 0.767 | RRQDLYSARDL [SART1_Y249] | 1.55 | 0.663 | 0.576 | 1.45 | 0.401 | 0.367 | 5.63 | 0.525 | 0.586 | 1.21 | 0.615 | 0.972 | 0.744
25 | 0.319 | 0.981 | 0.647 | RRSKMYLKTRS [LPL_Y329_S325R] | 0.659 | 0.889 | 0.448 | 0.728 | 0.514 | 0.845 | 0.602 | 0.578 | 0.599 | 1.03 | 0.571 | 0.708 | 0.709
26 | 0.477 | 0.847 | 0.642 | RSDEDYLFREE [POR_Y573_YF] | 0.592 | 1.66 | 0.865 | 1.47 | 0.891 | 0.964 | 0.983 | 1.31 | 0.914 | 0.836 | 1.34 | 0.768 | 2.36
27 | 0.693 | 0.945 | 0.602 | RSFSPCDFQPC [TNS1_Y796_Y796C_YF] | 0.643 | 0.705 | 0.54 | 0.83 | 0.584 | 0.991 | 0.786 | 0.427 | 0.672 | 0.583 | 0.822 | 0.783 | 0.972
28 | 0.758 | 1.23 | 0.875 | RSSKTYLKTRS [LPL_Y329_M328T] | 0.985 | 0.596 | 0.609 | 0.739 | 0.708 | 0.561 | 0.706 | 0.853 | 0.499 | 0.856 | 0.583 | 0.593 | 0.967
29 | 0.367 | 0.72 | 0.432 | RYVTRYIYNRE [HLA-DQB1_Y62] | 0.773 | 1.26 | 0.74 | 1.23 | 0.527 | 0.783 | 0.739 | 0.832 | 0.681 | 1.09 | 0.793 | 0.701 | 1.18
30 | 0.525 | 0.901 | 0.758 | SAEEDYMADAK [KCNT1_Y876] | 0.486 | 1.25 | 0.733 | 1.3 | 0.632 | 0.662 | 0.586 | 0.686 | 0.634 | 0.473 | 0.843 | 0.652 | 1.36
31 | 0.393 | 0.967 | 0.638 | SASSSYSRSRS [SRRM4_Y549_R547S] | 0.447 | 0.451 | 0.275 | 0.555 | 0.386 | 0.487 | 0.412 | 0.408 | 0.378 | 0.432 | 0.46 | 0.462 | 0.482
32 | 0.507 | 0.787 | 0.732 | SDVCMYRKNTF [SYNE2_Y570_I574T_YF] | 0.4 | 0.726 | 0.551 | 0.711 | 0.382 | 0.534 | 0.456 | 0.636 | 0.497 | 0.4 | 0.571 | 0.395 | 0.904
33 | 0.401 | 0.642 | 0.535 | SEASFYKSLNL [NGEF_Y289_YF] | 0.471 | 1.1 | 0.589 | 0.98 | 0.57 | 0.522 | 0.488 | 0.852 | 0.395 | 0.505 | 0.692 | 0.403 | 1.27
